From patent US20240228627A1, “GALECTIN-1-SPECIFIC MONOVALENT ANTIBODIES AND USES THEREOF” (INSTITUT NATIONAL DE LA RECHERCHE SCIENTIFIQUE, priority 2021, published 2024)

B1: G1N2: galectin-1-specific single-domain VHH nanobody, SEQ ID NO:9; weak-binding second clone from phage display (protein)
VHH: MAEVQLQASGGGFVQPGGSLRLSCAASGSTYFHTAMGWFRQAPGKEREFVSAISGFANPHRYYASSVKGRFTISRDNSKNTVYLQMNSLRAEDTATYYCANLISTNRGWLMGYWCQGTQVTVSS
modifications: G1N2 VHH
B2: G1N1 nanobody (galectin-1-specific VHH, clone D06) (VHH)
VHH: EVQLQASGGGFVQPGGSLRLSCAASGSTFSEDAMGWFRQAPGKEREFVSAISGFANPHSYYADSVKGRFTISRDNSKNTVYLQMNSLRAEDTATYYCAASHKKTRAPAATFETYWGQGTQVTVSS
notes: From a synthetic humanized nanobody library (hsd2Ab); For apoptosis, MST and ELISA it was made in E. coli from pHEN2 with 6xHis and cMyc tags; also called GAL-1-specific Nb #1; lead VHH clone G1N1; not shown: 6xHis and cMyc tags from vector pHEN2

Columns and labels:
[1] = biological target: T1, GAL-1-Biotin (biotinylated human GAL-1) (Homo sapiens, UniProt P09382); experiment: non-adsorbed phage ELISA of VHH clones on GAL-1-Biotin; type: binding; conditions: HRP-conjugated anti-M13 antibody, TMB substrate; 282 clones tested
T1 construct: made in house; host or cells: E. coli BL21 (DE3), pET-22b(+)
T1 sequence (P09382 whole entry): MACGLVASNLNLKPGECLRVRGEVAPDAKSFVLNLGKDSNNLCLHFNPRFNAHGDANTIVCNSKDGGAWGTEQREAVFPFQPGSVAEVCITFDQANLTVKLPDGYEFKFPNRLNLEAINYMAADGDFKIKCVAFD
Description: Generation and production of single chain camelid antibodies. Galectin-specific single chain (VHH) camelid antibodies were obtained following in vitro screening of a non-immune humanized synthetic single domain antibodies (hsd2Ab) library that contains more than 3×10^9 clones expressed at the surface of M13 phage [Moutel et al., 2016]. The panning was carried out against immobilized recombinant human galectin-1 devoid of carbohydrate in its glycan binding site (GBS). Prior to the phage display selection, galectin-1-biotin and GST-Biotin were bound to streptavidin magnetic beads (Dynabeads® M-280 Streptavidin, Life Technologies) with a 50 nM final concentration of biotinylated protein for the first round and 10 nM final concentration of biotinylated protein for the second and third rounds. […] Following three-rounds of phage display, clones were picked randomly and analyzed by non-adsorbed phage ELISA using HRP-conjugated anti-M13 antibody (GE Healthcare) and a colorimetric substrate (TMB, tetramethylbenzidine, Thermo Fischer).
Following an initial pre-screen round of phage display carried out with GST-biotin to deplete the library from unspecific binders, unbound VHHs were incubated with GAL-1-Biotin beads. […] A total of 282 VHHs were then picked and analyzed by ELISA for galectin-1 binders.

[2] = biological target: T2, recombinant human GAL-1 (rhGAL-1) (Homo sapiens, UniProt P09382); experiment: inhibition of galectin-1-induced apoptosis of Jurkat T cells (annexin V/propidium iodide flow cytometry); type: cell-based; conditions: rhGAL-1 2.25 μM, 4 h at 37° C., increasing concentrations of nanobody
T2 construct: made in house; host or cells: E. coli BL21 (DE3), pET-22b(+)
T2 sequence (P09382 whole entry): as above
Description: Briefly, Jurkat T cells were incubated with recombinant human GAL-1 (rhGAL-1; 2.25 μM) for 4h at 37° C. in presence of increasing concentrations of G1N1 and G1N2. Apoptosis was measured by flow cytometry using conventional annexin V/propidium iodide staining. Results represent data recorded on 5000 cells. Errors bars represent standard deviation.
Jurkat T cells were incubated with increasing concentrations of G1N1 pre-incubated with rhGAL-1 (2.25 μM) for 4 h at 37° C., after which apoptosis was measured by flow cytometry using Annexin V/propidium iodide staining. 5000 events were recorded. Errors bars represent standard deviation.
Apoptosis of human T cells. In vitro apoptosis assays were carried out using the standard in vitro human Jurkat T cell model system, fluorescein isothiocyanate (FITC)-labeled annexin V (Biolegend, San Diego, CA, USA) and propidium iodide (PI). Briefly, recombinant galectin-1 was pre-incubated for 1 h at 4° C. in serum free RPMI 1640 medium before addition to Jurkat cells. The mixture was incubated at 37° C. for 4 h. Cells were then washed once in PBS and once in binding buffer (0.01 M HEPES, 0.14 M NaCl, 2.5 mM CaCl2, pH 7.4). For staining, cells were incubated for 15 min with FITC-labeled annexin V in the dark at room temperature. The PI (0.25 μg/mL) stain was added to cells just before analysis by flow cytometry.

[3] = biological target: T3, mouse galectin-7 (mouse, UniProt O54974 1-136, limits assumed); experiment: microscale thermophoresis, Red-NHS labeled G1N1 (2 nM)
T3 construct: also called mouse GAL-7
T3 sequence (looked up): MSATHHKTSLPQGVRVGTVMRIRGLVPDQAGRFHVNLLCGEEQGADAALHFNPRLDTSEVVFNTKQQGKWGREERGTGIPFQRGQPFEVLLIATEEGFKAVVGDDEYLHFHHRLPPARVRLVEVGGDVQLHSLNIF
Description: (§1) FIG. 9A: Red-NHS labeled human GAL-1 (5 nM) incubated with G1N1 or alpha-lactose (a-lactose). […] In the same experiment, no binding was detected at 10 μM for human GAL-7, mouse GAL-7, human GAL-8 and human GAL-13. All experiments were performed in 20 mM Tris-HCl 150 mM NaCl and 0.1% F127. Binding affinities (Kd values) were determined from the fitted curves (three parameter dose-response curve) obtained from data of at least 3 independent experiments. For each value, 95% confidence intervals (Cl) are indicated.

[4] = biological target: T4, recombinant human galectin-1 (human, UniProt P09382 2-135); experiment: microscale thermophoresis (MST), Red-NHS labeled human GAL-1 (5 nM) with G1N1 or alpha-lactose
T4 construct: Recombinant, made in E. coli BL21(DE3) from pET-22b(+); also called hGAL-1; GAL-1
T4 sequence (P09382 2-135 limits assumed): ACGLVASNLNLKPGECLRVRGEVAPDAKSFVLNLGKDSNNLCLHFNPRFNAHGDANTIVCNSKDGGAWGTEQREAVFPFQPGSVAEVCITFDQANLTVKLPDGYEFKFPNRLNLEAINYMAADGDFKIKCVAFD
Description: as §1

[5] = biological target: T5, human galectin-2 (human, UniProt P05162 1-132); experiment: ELISA, human galectin-2 immobilized at 1 µM, anti-His-tag detection [left panel (1 µM]
T5 construct: Recombinant, made in E. coli; also called Gal-2
T5 sequence: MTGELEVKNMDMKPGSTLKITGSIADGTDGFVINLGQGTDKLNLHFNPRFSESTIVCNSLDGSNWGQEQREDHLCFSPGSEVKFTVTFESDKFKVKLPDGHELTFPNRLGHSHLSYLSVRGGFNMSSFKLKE
Description: (§2) Briefly, human galectins were immobilized at 1 and 5 μM for 16 h at 4° C. After a blocking step with PBS containing 10% (v/v) BSA (blocking buffer), increasing concentrations of G1N1 were added to each well and incubated for 1 h at room T° C. […] The colorimetric assay was carried out with 3,3′,5,5′-tetramethylbenzidine (Sigma-Aldrich, ON, Canada) according to the manufacturers recommendations.
(§3) ELISA assays. Recombinant human galectins were immobilized in 96-well plates at the indicated concentrations for 16 h at 4° C. After a blocking step with PBS containing 10% (v/v) bovine serum albumin (BSA) (blocking buffer), increasing concentrations of G1N1 were added to each well and incubated for 1 h at room temperature. […] The colorimetric assay was carried out with TMB (Sigma-Aldrich, MO, USA) according to the manufacturer's recommendations.

[6] = biological target: T6, human galectin-7 (human, UniProt P47929 1-136); experiment: ELISA, human galectin-7 immobilized at 1 µM, anti-His-tag detection [left panel (1 µM]
T6 construct: Recombinant, made in E. coli; also called human GAL-7; Gal-7
T6 sequence (P47929 whole entry): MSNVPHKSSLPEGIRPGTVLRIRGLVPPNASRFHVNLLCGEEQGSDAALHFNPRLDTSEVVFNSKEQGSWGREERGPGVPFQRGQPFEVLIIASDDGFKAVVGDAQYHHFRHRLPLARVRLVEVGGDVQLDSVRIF
Description: as §2, §3

[7] = biological target: T7, human galectin-13 (human, UniProt Q9UHV8 1-139); experiment: ELISA, human galectin-13 immobilized at 1 µM, anti-His-tag detection [left panel (1 µM]
T7 construct: Recombinant, made in E. coli; also called human GAL-13; Gal-13
T7 sequence: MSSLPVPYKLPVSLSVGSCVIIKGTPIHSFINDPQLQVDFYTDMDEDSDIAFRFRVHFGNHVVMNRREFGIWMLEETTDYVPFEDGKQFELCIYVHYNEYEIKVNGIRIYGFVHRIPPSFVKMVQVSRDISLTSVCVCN
Description: as §2, §3

[8] = biological target: T4, recombinant human galectin-1; experiment: microscale thermophoresis, Red-NHS labeled human GAL-1 (5 nM), G1N1 titrated; value in brackets is the 95% CI
Description: as §1

[9] = biological target: T4, recombinant human galectin-1; experiment: microscale thermophoresis, Red-NHS labeled G1N1 (2 nM), human galectin-1 titrated; value in brackets is the 95% CI
Description: as §1, with “FIG.” for “FIG. 9A: Red-NHS labeled human GAL-1 (5 nM) incubated with G1N1 or alpha-lactose (a-lactose).”

[10] = biological target: T8, recombinant mouse galectin-1 (mouse, UniProt P16045 2-135); experiment: microscale thermophoresis, Red-NHS labeled G1N1 (2 nM), mouse galectin-1 titrated; value in brackets is the 95% CI
T8 construct: also called mGAL-1
T8 sequence (P16045 2-135 limits assumed): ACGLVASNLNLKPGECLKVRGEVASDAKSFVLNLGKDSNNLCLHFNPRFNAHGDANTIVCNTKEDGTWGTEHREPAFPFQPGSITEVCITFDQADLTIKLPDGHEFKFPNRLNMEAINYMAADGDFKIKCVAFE

| Molecule | binding in phage ELISA in the presence of GAL-1-Biotin [1] | inhibition of galectin-1-induced apoptosis of Jurkat T cells [2] | binding result [3] | fold higher affinity than lactose for galectin-1 [4] [fold] | binding result [5] | binding result [6] | binding result [7] | Kd [8] [nM] | Kd [9] [nM] | Kd [10] [nM] |
| --- | --- | --- | --- | --- | --- | --- | --- | --- | --- | --- |
| B1 | weak binding | not | – | – | – | – | – | – | – | – |
| B2 | – | – | no binding (tested: 10 µM) | ~200 | no binding (tested: 10 µM) | no binding (tested: 10 µM) | no binding (tested: 10 µM) | 87 | 750 | 24.6 |
